Blank lines part the entries; values can stand above or below the binder they belong to.
Columns and labels:
[1] = target: Human CD117 (c-kit), cell-surface expressed (human) (UniProt P10721); assay: cell-based or functional assay
[2] = target: Cyno CD117, soluble (cynoCD117 1-520) (cynomolgus monkey); assay: SPR Biacore 4000, captured antibody, soluble CD117 analyte, 1:1 fit
[3] = target: N-terminal domain of human CD117, soluble (HuCD117 1-308) (human) (UniProt P10721); assay: as above
[4] = target: Full length human CD117, soluble (HuCD117 1-524) (human) (UniProt P10721); assay: as above
Sequence of Full length human CD117, soluble (HuCD117 1-524) (human) (P10721 26-524): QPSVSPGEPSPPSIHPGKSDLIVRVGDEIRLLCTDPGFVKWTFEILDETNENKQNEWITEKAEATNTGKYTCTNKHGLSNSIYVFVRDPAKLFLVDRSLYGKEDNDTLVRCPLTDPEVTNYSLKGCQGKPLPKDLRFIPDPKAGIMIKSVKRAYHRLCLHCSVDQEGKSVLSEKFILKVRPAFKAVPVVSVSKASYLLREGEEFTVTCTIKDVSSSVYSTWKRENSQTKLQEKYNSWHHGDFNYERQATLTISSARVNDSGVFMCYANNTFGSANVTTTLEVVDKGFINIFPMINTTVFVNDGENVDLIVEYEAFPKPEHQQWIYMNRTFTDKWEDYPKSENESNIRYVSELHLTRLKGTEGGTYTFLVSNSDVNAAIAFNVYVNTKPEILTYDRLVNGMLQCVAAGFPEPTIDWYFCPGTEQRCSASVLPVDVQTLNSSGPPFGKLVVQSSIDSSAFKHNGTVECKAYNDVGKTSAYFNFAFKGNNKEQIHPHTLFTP

Sequence of N-terminal domain of human CD117, soluble (HuCD117 1-308) (human) (P10721 26-308): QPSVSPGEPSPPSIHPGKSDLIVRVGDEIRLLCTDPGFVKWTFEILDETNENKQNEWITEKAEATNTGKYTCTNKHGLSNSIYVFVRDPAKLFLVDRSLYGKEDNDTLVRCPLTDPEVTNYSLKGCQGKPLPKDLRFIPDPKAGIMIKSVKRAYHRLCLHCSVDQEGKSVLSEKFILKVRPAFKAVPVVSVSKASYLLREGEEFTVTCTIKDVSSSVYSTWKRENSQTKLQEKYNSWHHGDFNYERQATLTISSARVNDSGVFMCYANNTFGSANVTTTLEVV
Sequence of Human CD117 (c-kit), cell-surface expressed (human) (P10721 26-976 limits assumed): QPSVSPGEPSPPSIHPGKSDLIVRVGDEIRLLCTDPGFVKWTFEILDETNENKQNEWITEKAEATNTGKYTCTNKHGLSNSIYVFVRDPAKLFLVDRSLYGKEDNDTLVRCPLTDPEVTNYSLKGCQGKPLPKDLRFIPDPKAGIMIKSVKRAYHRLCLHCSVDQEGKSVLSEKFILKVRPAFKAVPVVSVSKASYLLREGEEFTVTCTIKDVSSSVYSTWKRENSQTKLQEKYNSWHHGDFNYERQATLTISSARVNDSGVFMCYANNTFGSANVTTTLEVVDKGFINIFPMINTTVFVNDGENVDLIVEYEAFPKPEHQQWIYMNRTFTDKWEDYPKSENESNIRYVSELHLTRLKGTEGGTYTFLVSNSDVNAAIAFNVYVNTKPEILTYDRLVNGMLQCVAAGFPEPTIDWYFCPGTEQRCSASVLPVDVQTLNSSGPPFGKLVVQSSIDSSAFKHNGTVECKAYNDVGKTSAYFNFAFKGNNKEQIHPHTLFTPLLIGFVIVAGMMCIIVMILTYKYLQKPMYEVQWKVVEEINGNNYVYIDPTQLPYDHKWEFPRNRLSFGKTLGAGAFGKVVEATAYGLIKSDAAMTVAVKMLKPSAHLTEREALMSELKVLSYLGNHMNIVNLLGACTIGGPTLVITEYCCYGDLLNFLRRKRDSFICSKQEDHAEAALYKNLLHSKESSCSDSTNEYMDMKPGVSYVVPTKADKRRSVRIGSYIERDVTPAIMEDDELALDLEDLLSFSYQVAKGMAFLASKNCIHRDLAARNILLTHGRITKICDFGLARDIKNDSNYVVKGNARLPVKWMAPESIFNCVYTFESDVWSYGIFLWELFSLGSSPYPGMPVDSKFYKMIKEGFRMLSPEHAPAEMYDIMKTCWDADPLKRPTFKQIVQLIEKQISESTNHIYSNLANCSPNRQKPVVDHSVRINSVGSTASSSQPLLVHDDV
Sequence of Cyno CD117, soluble (cynoCD117 1-520) (cynomolgus monkey) (P10721 other isoform, or with tags, fused parts or gaps): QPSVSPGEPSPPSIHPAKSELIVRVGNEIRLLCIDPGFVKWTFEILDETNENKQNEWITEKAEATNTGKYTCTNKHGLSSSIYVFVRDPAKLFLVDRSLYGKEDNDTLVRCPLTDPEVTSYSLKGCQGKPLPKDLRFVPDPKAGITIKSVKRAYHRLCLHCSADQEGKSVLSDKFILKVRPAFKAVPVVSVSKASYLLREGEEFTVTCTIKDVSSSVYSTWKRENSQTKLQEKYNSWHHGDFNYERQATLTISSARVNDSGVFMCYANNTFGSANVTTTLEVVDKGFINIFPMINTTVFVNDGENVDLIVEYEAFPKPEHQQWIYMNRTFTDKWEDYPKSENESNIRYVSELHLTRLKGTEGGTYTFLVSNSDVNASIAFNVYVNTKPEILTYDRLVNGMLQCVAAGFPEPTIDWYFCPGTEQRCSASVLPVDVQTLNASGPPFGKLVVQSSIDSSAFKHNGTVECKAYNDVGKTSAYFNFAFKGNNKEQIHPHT

EC50 of trogocytosis (ADCT; DILC18 membrane uptake by neutrophils from CD117-transfected 293 cells) [1]: 0.48 nM
Normalised uptake (B max) in %, ADCT [1]: 70.6%
Kd [2]: 0.1 nM
Kd [3]: 0.08 nM
Kd [4]: 0.3 nM
B1: huAb249 IgA2 (antibody, from another filing, V domains shown)
VH: EVQLVQSGAEVKKPGESLKISCKGSGYRFTTSWIGWVRQMPGKGLEWMGIIYPGDSDTRYSPSFQGQVTISADKSISTAYLQWSSLKASDTAMYYCARHGLGYNGYEGAFDIWGQGTLVTVSS
VL: DIQMTQSPSSLSASVGDRVTITCRASQGIGSALAWYQQKPGKAPKLLIYDASNLETGVPSRFSGSGSGTDFTLTISSLQPEDFATYYCQQLNGYPLTFGQGTRLEIK

Kd [2]: 0.3 nM
Kd [3]: 0.14 nM
Kd [4]: 0.3 nM
B2: huAb249 IgG4 (antibody, from another filing, V domains shown)
VH: B1 VH
VL: B1 VL

Reference: patent US20250171536A1
